Source: PMC4963090 (PLoS ONE, 2016)

T1: head-only RSV F immunogen i-693 (Human respiratory syncytial virus A, …, S155C | S190F | V207L | S290C | S155C | S190F | V207L | S290C)
T1 construct: RSV fusion (F) glycoprotein, subtype A strain A2, F2 segment of domain III, first monomer; numbers count on: PDB entry 4JHW; linker between F2 and F1; RSV fusion (F) glycoprotein, subtype A strain A2, F1 segment, first monomer; linker between the two identical monomers; RSV fusion (F) glycoprotein, subtype A strain A2, F2 segment of domain III, second monomer; RSV fusion (F) glycoprotein, subtype …
T1 chain: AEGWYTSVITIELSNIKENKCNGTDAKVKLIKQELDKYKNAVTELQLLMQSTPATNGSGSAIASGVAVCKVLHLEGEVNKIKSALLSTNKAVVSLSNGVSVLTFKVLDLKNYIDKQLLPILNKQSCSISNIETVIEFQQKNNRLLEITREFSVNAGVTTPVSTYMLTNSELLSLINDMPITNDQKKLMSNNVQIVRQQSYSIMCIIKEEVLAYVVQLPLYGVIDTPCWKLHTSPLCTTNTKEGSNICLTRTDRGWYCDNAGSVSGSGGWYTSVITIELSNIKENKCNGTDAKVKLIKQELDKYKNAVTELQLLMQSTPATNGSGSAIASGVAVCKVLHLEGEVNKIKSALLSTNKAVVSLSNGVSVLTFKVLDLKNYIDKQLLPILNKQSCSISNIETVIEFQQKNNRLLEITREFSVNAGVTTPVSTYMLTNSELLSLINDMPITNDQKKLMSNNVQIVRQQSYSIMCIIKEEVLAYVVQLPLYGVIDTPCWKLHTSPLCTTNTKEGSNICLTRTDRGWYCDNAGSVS

T2: head-only RSV F immunogen i-447 (Human respiratory syncytial virus A, …, S190F | S155C | S290C)
T2 construct: RSV fusion (F) glycoprotein, subtype A strain A2, F1 segment of domain III (head); numbers count on: PDB entry 4JHW; linker; RSV fusion (F) glycoprotein, subtype A strain A2, F2 segment of domain III (head); MTQ-F1-GGPG-F2; A signal peptide for secretion was added; Tags are thrombin-cleavable: held by the His-tag or Strep-tag in BLI; said to be cleaved before SEC, EM and immunisation; also called …
T2 chain: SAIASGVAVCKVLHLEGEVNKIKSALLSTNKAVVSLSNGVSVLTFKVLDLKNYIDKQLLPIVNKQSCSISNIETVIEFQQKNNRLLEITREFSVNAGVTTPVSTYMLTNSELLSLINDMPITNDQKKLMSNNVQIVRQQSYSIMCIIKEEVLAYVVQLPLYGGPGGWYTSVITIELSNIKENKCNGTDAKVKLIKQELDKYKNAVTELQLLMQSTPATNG

T3: head-only RSV F immunogen i-273 (Human respiratory syncytial virus A, …, S155C | S190F | V207L | S290C | L258K | L273K)
T3 construct: RSV fusion (F) glycoprotein, subtype A strain A2, F1 segment of domain III (head); numbers count on: PDB entry 4JHW; linker; RSV fusion (F) glycoprotein, subtype A strain A2, F2 segment of domain III (head); Circular permutant F1-GG-F2; A signal peptide for secretion was added; Tags are thrombin-cleavable: held by the His-tag in the kinetic BLI; said to be cleaved before SEC, EM and immunisation; …
T3 chain: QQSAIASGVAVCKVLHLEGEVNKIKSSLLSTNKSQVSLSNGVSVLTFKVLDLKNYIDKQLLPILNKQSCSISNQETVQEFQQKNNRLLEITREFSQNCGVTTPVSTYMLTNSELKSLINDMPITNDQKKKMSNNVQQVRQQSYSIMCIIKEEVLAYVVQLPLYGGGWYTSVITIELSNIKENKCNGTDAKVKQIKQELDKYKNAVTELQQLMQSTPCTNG

T4: head-only RSV F immunogen i-210 (Human respiratory syncytial virus A, …, S155C | S190F | V207L | S290C | L258K)
T4 construct: RSV fusion (F) glycoprotein, subtype A strain A2, F1 segment of domain III (head); numbers count on: PDB entry 4JHW; linker; RSV fusion (F) glycoprotein, subtype A strain A2, F2 segment of domain III (head); linker to the foldon; bacteriophage T4 foldon trimerization domain (of fibritin); Circular permutant F1-GGSGG-F2-GGSGGSG-foldon; A signal peptide for secretion was added; Tags are …
T4 chain: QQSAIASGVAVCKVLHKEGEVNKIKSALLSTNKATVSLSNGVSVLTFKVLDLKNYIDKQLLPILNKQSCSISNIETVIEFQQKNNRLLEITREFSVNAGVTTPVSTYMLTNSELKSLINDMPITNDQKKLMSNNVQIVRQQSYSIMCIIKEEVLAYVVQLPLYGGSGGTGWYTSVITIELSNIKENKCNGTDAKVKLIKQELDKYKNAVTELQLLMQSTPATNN


Key:
[1] = target: head-only RSV F immunogen i-210 (respiratory syncytial virus subtype A, strain A2 | bacteriophage T4) (UniProt P03420); assay: BLI; head-only variants (50 ug/ml) held on anti-His-tag (HIS1K) tips; Fabs in solution 0.016-0.5 uM; 30°C, PBS + 1% BSA; global 1:1 fit
[2] = target: head-only RSV F immunogen i-273 (respiratory syncytial virus subtype A, strain A2) (UniProt P03420); assay: as above
[3] = target: head-only RSV F immunogen i-273 (respiratory syncytial virus subtype A, strain A2) (UniProt P03420); assay: negative-stain electron microscopy; immunogens alone or mixed with D25 and/or motavizumab Fabs; 20 mM HEPES pH 7.0, 150 mM NaCl; uranyl formate; reference-free 2D class averages
[4] = target: T1, head-only RSV F immunogen i-693; assay: BLI; head-only variants (50 ug/ml) held on anti-His-tag (HIS1K) tips; Fabs in solution 0.016-0.5 uM; 30°C, PBS + 1% BSA; global 1:1 fit; details: both partners purified
[5] = target: T2, head-only RSV F immunogen i-447; assay: as above; details: both partners purified
[6] = target: T3, head-only RSV F immunogen i-273; assay: as above; details: both partners purified
[7] = target: T4, head-only RSV F immunogen i-210; assay: as above; details: both partners purified

| Molecule | Kd [1] [nM] | Kd [2] [nM] | percent of particles with bound Fab [3] [%] | Kd [4] [nM] | Kd [5] [nM] | Kd [6] [nM] | Kd [7] [nM] |
| --- | --- | --- | --- | --- | --- | --- | --- |
| motavizumab Fab | 761 | 1360 | < 10 |  |  |  |  |
| motavizumab Fab (Fab, V domains shown, Antigenic site II-directed antibody; also called Fab motavizumab; source: HEK 293-F, co-transfected heavy and light chain plasmids; IgG on Protein A, digested with Lys-C or HRV3C protease, Fab purified by SEC) VH: QVTLRESGPALVKPTQTLTLTCTFSGFSLSTAGMSVGWIRQPPGKALEWLADIWWDDKKHYNPSLKDRLTISKDTSKNQVVLKVTNMDPADTATYYCARDMIFNFYFDVWGQGTTVTVSS VL: DIQMTQSPSTLSASVGDRVTITCSASSRVGYMHWYQQKPGKAPKLLIYDTSKLASGVPSRFSGSGSGTEFTLTISSLQPDDFATYYCFQGSGYPFTFGGGTKVEIK |  |  |  | 6.5 | 0.5 |  |  |
| D25 Fab (Fab, V domains shown, Antigenic site Ø-directed antibody; also called Fab D25; source: HEK 293-F, co-transfected heavy and light chain plasmids; IgG on Protein A, digested with Lys-C or HRV3C protease, Fab purified by SEC) VH: QVQLVQSGAEVKKPGSSVMVSCQASGGPLRNYIINWLRQAPGQGPEWMGGIIPVLGTVHYAPKFQGRVTITADESTDTAYIHLISLRSEDTAMYYCATETALVVSTTYLPHYFDNWGQGTLVTVSS VL: DIQMTQSPSSLSAAVGDRVTITCQASQDIVNYLNWYQQKPGKAPKLLIYVASNLETGVPSRFSGSGSGTDFSLTISSLQPEDVATYYCQQYDNLPLTFGGGTKVEIK |  |  |  | 9.9 | 0.7 | 33.3 | 0.7 |
